{"source": "patent US20230213527A1", "about": "(QUANTUM SI, published 2023)", "key": {"[1]": {"target": "T1, QP942, … (SEQ ID NO: 921), state with N-terminal arginine", "T1 construct": "State after aminopeptidase cleavage of the N-terminal leucine; residue range inferred; also called R-X peptide, X = T", "T1 peptide": "RTAFAYPDDDK", "test": "single-molecule on-chip sequencing with PS621, PS610 and PS961; average of 10 sequencing reactions"}, "[2]": {"target": "T2, QP943, … (SEQ ID NO: 925), state with N-terminal arginine", "T2 construct": "State after aminopeptidase cleavage of the N-terminal leucine; residue range inferred; also called R-X peptide, X = V", "T2 peptide": "RVAFAYPDDDK", "test": "single-molecule on-chip sequencing with PS621, PS610 and PS961; average of 10 sequencing reactions"}, "[3]": {"target": "T3, QP749, … (SEQ ID NO: 911), state with N-terminal arginine", "T3 construct": "State after aminopeptidase cleavage of the N-terminal leucine; residue range inferred; also called R-X peptide, X = I", "T3 peptide": "RIAFAYPDDDK", "test": "single-molecule on-chip sequencing with PS621, PS610 and PS961; average of 10 sequencing reactions"}, "[4]": {"target": "T4, QP746, … (SEQ ID NO: 913), state with N-terminal arginine", "T4 construct": "State after aminopeptidase cleavage of the N-terminal leucine; residue range inferred; also called R-X peptide, X = Y", "T4 peptide": "RYAFAYPDDDK", "test": "single-molecule on-chip sequencing with PS621, PS610 and PS961; average of 10 sequencing reactions"}, "[5]": {"target": "T5, QP941, … (SEQ ID NO: 923), state with N-terminal arginine", "T5 construct": "State after aminopeptidase cleavage of the N-terminal leucine; residue range inferred; also called R-X peptide, X = Q", "T5 peptide": "RQAFAYPDDDK", "test": "single-molecule on-chip sequencing with PS621, PS610 and PS961; average of 10 sequencing reactions"}, "[6]": {"target": "T6, QP747, … (SEQ ID NO: 917), state with N-terminal arginine", "T6 construct": "State after aminopeptidase cleavage of the N-terminal leucine; residue range inferred; also called R-X peptide, X = A", "T6 peptide": "RAAFAYPDDDK", "test": "single-molecule on-chip sequencing with PS621, PS610 and PS961; average of 10 sequencing reactions"}, "[7]": {"target": "T7, QP707, … (SEQ ID NO: 817), state with N-terminal arginine (RLAFAYPDDDK)", "T7 construct": "residue range inferred from the recognized N-terminal residue; also called R-X peptide, X = L", "T7 peptide": "RLAFAYPDDDK", "test": "single-molecule on-chip sequencing with PS621, PS610 and PS961; average of 10 sequencing reactions"}, "[8]": {"target": "T8, QP938, … (SEQ ID NO: 919), state with N-terminal arginine", "T8 construct": "State after aminopeptidase cleavage of the N-terminal leucine; residue range inferred; also called R-X peptide, X = E", "T8 peptide": "REAFAYPDDDK", "test": "single-molecule on-chip sequencing with PS621, PS610 and PS961; average of 10 sequencing reactions"}, "[9]": {"target": "T9, QP748, … (SEQ ID NO: 915), state with N-terminal arginine", "T9 construct": "State after aminopeptidase cleavage of the N-terminal leucine; residue range inferred; also called R-X peptide, X = S", "T9 peptide": "RSAFAYPDDDK", "test": "single-molecule on-chip sequencing with PS621, PS610 and PS961; average of 10 sequencing reactions"}, "[10]": {"target": "T2, QP943, … (SEQ ID NO: 925), state with …", "test": "cell-based or functional assay"}, "[11]": {"target": "T3, QP749, … (SEQ ID NO: 911), state with …", "test": "cell-based or functional assay"}, "[12]": {"target": "T4, QP746, … (SEQ ID NO: 913), state with …", "test": "cell-based or functional assay"}, "[13]": {"target": "T7, QP707, … (SEQ ID NO: 817), state with …", "test": "cell-based or functional assay"}, "[14]": {"target": "T10, … (SEQ ID NO: 836), state with N-terminal SDMA (human, symmetric dimethylarginine (SDMA) at position 2 of SEQ ID NO: 836 (N-terminal residue of this state); conjugated C-terminally to a macromolecular linker)", "T10 construct": "residue range inferred", "test": "single-molecule on-chip dynamic sequencing"}, "[15]": {"target": "T11, QP789, LCitLAFAYPDDDK (SEQ ID NO: 839), state with N-terminal citrulline (CitLAFAYPDDDK)", "T11 construct": "residue range inferred", "T11 peptide": "[Cit]LAFAYPDDDK", "test": "single-molecule on-chip dynamic sequencing"}, "[16]": {"target": "T12, QP789, LCitLAFAYPDDDK (SEQ ID NO: 839) (also: C-terminal azidolysine (general statement for all synthetic peptides))", "T12 construct": "Intact peptide, N-terminal leucine", "T12 peptide": "L[Cit]LAFAYPDDDK-NH2", "test": "single-molecule on-chip sequencing; recognition of the N-terminal amino acid", "description": "(§1) In this example, sequencing reactions were conducted for 4 pairs of unmodified and citrullinated peptides: QP1028 & QP1029, QP1030 & QP1031, QP1032 & QP1033, and QP707 & QP789. […] For the QP1028 & QP1029 and QP1030 & QP1031 pairs, sequencing reactions were conducted using the PS610 (FYW) recognizer. For the QP1032 & QP1033 and QP707 & QP789 pairs, sequencing reactions were conducted using the PS1223 (LIV) recognizer."}, "[17]": {"target": "T13, QP1032, IRLAFAYPDDDK (SEQ ID NO: 849)", "T13 peptide": "IRLAFAYPDDDK", "test": "single-molecule on-chip sequencing; recognition of the N-terminal amino acid", "description": "as §1"}, "[18]": {"target": "T14, QP1033, ICitLAFAYPDDDK (SEQ ID NO: 850) (also: C-terminal azidolysine (general statement for all synthetic peptides))", "T14 peptide": "I[Cit]LAFAYPDDDK-NH2", "test": "single-molecule on-chip sequencing; recognition of the N-terminal amino acid", "description": "as §1"}, "[19]": {"target": "T15, QP707, LRLAFAYPDDDK (SEQ ID NO: 817) (not fully specified (C-terminus); also: surface-immobilized through C-terminal linker)", "T15 construct": "Intact peptide, N-terminal leucine; surface-immobilized through a C-terminal linker", "T15 peptide": "LRLAFAYPDDDK", "test": "single-molecule on-chip sequencing; recognition of the N-terminal amino acid", "description": "as §1"}, "[20]": {"target": "T16, QP706, vimentin peptide fragment … (SEQ ID NO: 841), state with N-terminal leucine (LEQQNK)", "T16 construct": "residue range inferred from the printed segment", "T16 peptide": "LEQQNK", "test": "single-molecule on-chip sequencing of QP706 with PS610, PS1220 and PS1223; LEQ cluster in bin ratio v. pulse duration plot", "description": "(§2) Sequencing reactions using the recognizers PS610 (FYW), PS1220 (R), and PS1223 (LIV) were performed separately for the QP706 and QP1073 peptide fragments. Each recognizer was labeled with a unique dye and/or unique number of dyes. A scatter plot of bin ratio v. pulse duration is shown for the QP706 peptide fragment in FIG. 18A and for the QP1073 peptide fragment in FIG. 18B. In the plot of FIG. 18A, three clusters corresponding to FLE, LEQ, and RFL segments are visible. […] In the plot of FIG. 18B, two clusters corresponding to FLE and LEQ segments are visible, but there is no cluster corresponding to RFL."}, "[21]": {"target": "T17, QP1073, citrullinated vimentin peptide fragment VCitFLEQQNK (SEQ ID NO: 842), state with N-terminal leucine …", "T17 construct": "State after aminopeptidase cleavage", "T17 peptide": "LEQQNK", "test": "single-molecule on-chip sequencing of QP1073 with PS610, PS1220 and PS1223; bin ratio v. pulse duration plot", "description": "as §2"}, "[22]": {"target": "T18, QP1073, citrullinated vimentin peptide fragment VCitFLEQQNK (SEQ ID NO: 842), state with N-terminal …", "T18 construct": "residue range inferred", "T18 peptide": "[Cit]FLEQQNK", "test": "single-molecule on-chip dynamic sequencing; bin ratio v. pulse duration clusters", "description": "as §2"}, "[23]": {"target": "T19, QP706, vimentin peptide fragment … (SEQ ID NO: 841), state with N-terminal arginine (RFLEQQNK)", "T19 construct": "residue range inferred from the printed segment", "T19 peptide": "RFLEQQNK", "test": "single-molecule on-chip sequencing of QP706 with PS610, PS1220 and PS1223; RFL cluster in bin ratio v. pulse duration plot", "description": "as §2"}}, "note": "Square brackets hold non-standard residues; d marks the D form. Ends that are not written are not given here. Cit = NC(=O)NCCC[C@H](N)C(=O)O"}
{"binder": "PS621 (other, Dye-labeled N-terminal arginine recognizer; also called PS621 (R)) MHSKFSHAGRICGAKFKVGEPIYRCKECSFDDTCVLCVNCFNPKDHTGHHVYTTICTEFNNGICDCGDKEAWNHTLFCKAEEG", "values": [{"measurement": "PW of R-X", "setting": "[1]", "value": "< 0.06", "unit": "s"}, {"measurement": "PW of R-X", "setting": "[2]", "value": 0.41, "unit": "s"}, {"measurement": "PW of R-X", "setting": "[3]", "value": 0.28, "unit": "s"}, {"measurement": "PW of R-X", "setting": "[4]", "value": 0.18, "unit": "s"}, {"measurement": "PW of R-X", "setting": "[5]", "value": "< 0.06", "unit": "s"}, {"measurement": "PW of R-X", "setting": "[6]", "value": "< 0.12", "unit": "s"}, {"measurement": "PW of R-X", "setting": "[7]", "value": 0.47, "unit": "s"}, {"measurement": "PW of R-X", "setting": "[8]", "value": "< 0.06", "unit": "s"}, {"measurement": "PW of R-X", "setting": "[9]", "value": "< 0.12", "unit": "s"}, {"measurement": "RS R-X", "setting": "[10]", "value": 25.5, "unit": "min"}, {"measurement": "RS R-X", "setting": "[11]", "value": 15.4, "unit": "min"}, {"measurement": "RS R-X", "setting": "[12]", "value": 9.6, "unit": "min"}, {"measurement": "RS R-X", "setting": "[13]", "value": 17.3, "unit": "min"}, {"measurement": "binding result", "setting": "[14]", "value": "no binding"}, {"measurement": "binding result", "setting": "[15]", "value": "no binding"}]}
{"binder": "PS1223 (designed binder, also called PS1223 (LIV)) MPTAASATESAIEDTPAPARPEVDGRTKPKRQPRYHVVLWDDDDHTYQYVVVMLRSLFGHPPSRGYRMAKEMDTQGRVIVLTTTREHAELKRDQIHAFGRDRLLARSKGSMKASIEAEEGSAGSAAGSGEFGSAGSAAGSGEFGSAGSAAGSGEFMPTAASATESAIEDTPAPARPEVDGRTKPKRQPRYHVVLWDDDDHTYQYVVVMLRSLFGHPPSRGYRMAKEMDTQGRVIVLTTTREHAELKRDQIHAFGRDRLLARSKGSMKASIEAEE", "values": [{"measurement": "Pulse Width", "setting": "[16]", "value": 0.92, "unit": "s"}, {"measurement": "Pulse Width", "setting": "[17]", "value": 0.58, "unit": "s"}, {"measurement": "Pulse Width", "setting": "[18]", "value": 0.84, "unit": "s"}, {"measurement": "Pulse Width", "setting": "[19]", "value": 0.42, "unit": "s"}, {"measurement": "binding result", "setting": "[20]", "value": "binds"}, {"measurement": "binding result", "setting": "[21]", "value": "binds"}]}
{"binder": "PS1220 (designed binder, also called PS1220 (R)) MHSKFSHAGRICGAKFKVGEPIYRCKECSFDDTCVLCVNCFNPKDHLGHHVYTTICTEFNNGECDCGDKTAWNHTLFCKAEEGSAGSAAGSGEFMHSKFSHAGRICGAKFKVGEPIYRCKECSFDDTCVLCVNCFNPKDHLGHHVYTTICTEFNNGECDCGDKTAWNHTLFCKAEEG", "values": [{"measurement": "binding result", "setting": "[22]", "value": "no binding"}, {"measurement": "binding result", "setting": "[23]", "value": "binds"}]}
